From paper PMC11172311, “Structural and Interactional Analysis of the Flavonoid Pathway Proteins: Chalcone Synthase, Chalcone Isomerase and Chalcone Isomerase-like Protein” (International Journal of Molecular Sciences, 2024)

How the values were obtained:
[1] = substrate: CC(C)(COP(=O)(O)OP(=O)(O)OC[C@H]1O[C@@H](n2cnc3c(N)ncnc32)[C@H](O)[C@@H]1OP(=O)(O)O)[C@@H](O)C(=O)NCCC(=O)NCCSC(=O)/C=C/c1ccc(O)cc1; experiment: steady-state kinetics, LC-MS/MS (Km); assay type: biochemical, Panicum virgatum; conditions: malonyl-CoA (co-substrate)
purified protein = substrate: O=C(/C=C/c1ccc(O)cc1)c1c(O)cc(O)cc1O; experiment: purified protein; assay type: biochemical, Panicum virgatum
[2] = substrate: O=C(/C=C/c1ccc(O)cc1)c1c(O)cc(O)cc1O; experiment: steady-state kinetics (Km); assay type: biochemical, Sorghum bicolor
[3] = substrate: O=C(/C=C/c1ccc(O)cc1)c1ccc(O)cc1O; experiment: steady-state kinetics (Km); assay type: biochemical, Sorghum bicolor

B1: PvCHS (chalcone synthase) (Panicum virgatum) (protein)
chain: MAGAAAAVTVEEVRKAQRASGPATVLAIGTATPANCVHQADYPDYYFRVTKSDHLTDLKEKFKRMCDKSMIRKRYMHLTEEFLAENPNMCAYMAPSLDARQDIVVVEVPKLGKAAAQKALKEWGQPRSRITHLVFCTTSGVDMPGADYQLTKLLGLRPSVNRLMMYQQGCFAGGTVLRVAKDLAENNRGARVLVVCSEITAVTFRGPSESHLDSLVGQALFGDGAAAVIVGADPDERAERPLFQLVSAAQTLLPDSEGAIDGHLREVGLTFHLLKDVPGLISKNIERALEAAFAPLGISDWNSIFWVAHPGGPAILDQVEAKVSLDKARMRATRHVLAEYGNMSSACVLFILDEMRKRSAEDGCATTGEGLDWGVLFGFGPGLTVETVVLHSVPITAGAAAA
notes: recombinant, N-terminal 6×-His tag
- Km [1]: 0.1303 ± 0.0319 µM
- kcat [1]: 0.00695 ± 0.00077 s⁻¹
- kcat/Km [1]: 53300 M⁻¹ s⁻¹

B2: PvCHI (chalcone isomerase) (Panicum virgatum) (protein)
chain: MAAVSEVAVDGVVFPPVARPPGSGRSHFLAGAGVRGMEIGGNFIKFTAIGVYLEEGAAVSALAKKWAGKSADELAADAAFFRDVVTGDFEKFTRVTMILPLTGEQYSGKVTENCVAYWKAVGVYTDAEGAAVDKFKEAFKPETFPPGASILFTHSPAGVLTVAFSKDSSVPESGGVAIDNKPLCEAVLESIIGEHGVSPAAKLSVAARVSELLKEASPAGGAPQAAAEPAVPVSA
notes: as for B1
- Km (purified protein): 16.04 ± 6.28 µM
- kcat (purified protein): 8010 ± 1180 s⁻¹
- kcat/Km (purified protein): 5e+08 M⁻¹ s⁻¹

B3: SbCHI (chalcone isomerase, Bmr30) (Sorghum bicolor) (protein)
chain: MAVPEVVVEGVVFPPVARPPGSAGSHFLGGAGVRGIEIGGNFIKFTAIGVYLEDAAVSALAKKWAGKTADELASDAAFFRDVVTGDFEKFTRVTMLLPLTGEQYAGKVTENCVAFWKAVGLYTDAEGVAVEKFKEAFKPETFPPGASILFTHSSTGVLTVAFSKDSSVPASGGVAIENKHLCEAVLESIIGEHGVSPAAKLSLAARVSELLTKGTAGAADAPQAEPVSVTA
notes: recombinant SbCHI
- Km [2]: 16.55 ± 2.08 µM
- kcat [2]: 2890 ± 144 s⁻¹
- kcat/Km [2]: 1.74e+08 M⁻¹ s⁻¹
- Km [3]: 1.585 ± 0.929 µM
- kcat [3]: 0.239 ± 0.0274 s⁻¹
- kcat/Km [3]: 151000 M⁻¹ s⁻¹
